We go through 84 variants from the RNAGym collection of RNA variant scans (doi:10.1073/pnas.2313332121).

Sequences and labels used below:
B1: TPR 5TU (parent)
chain: GGAUCUUCUCGAUCUAACAAAAAAGACAAAUCUGCCACAAAGCUUGAGAGCAUCUUCGGAUGCAGAGGCGGCAGCCUUCGGUGGCGCGAUAGCGCCAACGUUCUCAACUAUGACACGCAAAACGCGUGCUCCGUUGAAUGGAGUUUAUCAUG

This sample holds only a part of the variants without activity.

Variants of B1 are the subject of the data set. In words: polymerase ribozyme fitness, log enrichment relative to wild type (log ratio); higher = more active; in vitro selection for triplet polymerase activity. In outline:
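A heterodimeric triplet polymerase ribozyme had each of its subunits mutagenized by PCR into a library, which was transcribed. One round of in vitro selection, done in triplicate, annealed each library with a biotinylated primer, its partner subunit and triplets, then incubated it frozen at −7 °C before gel excision of extended constructs, streptavidin-bead capture and RT-PCR. Fitness is the logarithm of genotype enrichment relative to wild-type enrichment, based on Illumina sequencing of inputs and outputs and inverse-variance-weighted replicate averages. A base-2 logarithm is used, and genotypes were kept only with ≥10 input reads and ≥1 read per output.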
With A3G G11A C32U C85G C87A G124U, the “polymerase ribozyme fitness (log ratio)” value was at most -4.2.
As for C54A C79A G100A, the figure is at most -4.2.
As for A106G C125A, the “polymerase ribozyme fitness (log ratio)” value was -0.665.
In the case of C38U U45A G92C it was -4.13; in that of U15G U77A U78G G88U C149G, at most -4.2.
In the case of C32A C38A U56A C69U C93A A122C G126U it was at most -4.2; in that of U56A C57U, 0.273; in that of U9G C87G C93U C125A, at most -4.2.
Consider A20C A26C A30C U44G G50A A66C, for which the “polymerase ribozyme fitness (log ratio)” value is at most -4.2.
In the case of G48A G136U it was -2.5; in that of C87A A91G, at most -4.2.
In the case of C51G U53C G67C G86U U101G A138U it was at most -4.2; in that of C38U A89G, -1.07.
As for A115U, the figure is -1.48.
As to U45G C76A G86A G141C C149G, the “polymerase ribozyme fitness (log ratio)” value was at most -4.2.
In the case of A16C A17G G58U C87A C93A it was at most -4.2; in that of A52G U61G A73G, -2.84; in that of A40U A97U C108U, at most -4.2.
In the case of C51U C95G A110U G141U it was at most -4.2; in that of C43U A52U C85G G133U, at most -4.2; in that of A47C A49C G65A G84A A113G G141A, at most -4.2.
Consider U53A G117A, for which the “polymerase ribozyme fitness (log ratio)” value is -0.303.
As for G48C C87G G88C A91G A119U U134G, the figure is at most -4.2; as for C51A G140U, -4.11.
In the case of U7G C54U G92U it was -2.21.
As for A47U C54A, the figure is -1.93; as for A49G A73G, -0.67; as for G11A U134A, -3.6.
Turning to A16G U53A U146G, the “polymerase ribozyme fitness (log ratio)” value is -2.19.
As for A39G A137G, the figure is -3.57; as for U44G U61C, at most -4.2.
In the case of C10U A17U A41C G50C G84A it was at most -4.2; in that of A19G U82G G124A G140C, -3.62.
In the case of A19U A49C C54A G62A A119G C125U U144A it was at most -4.2.
Consider A91G C93U, for which the “polymerase ribozyme fitness (log ratio)” value was -3.88.
In the case of A3U A22C U31C U61A it was -2.45; in that of A49C C51U G133A G143U, at most -4.2.
For the variant G11A C54U G83A A147U, the “polymerase ribozyme fitness (log ratio)” value was -0.578.
In the case of C54U U56C A73U it was -1.06.
In the case of C116U C125G it was 1.23.
In the case of U13G C38U C63U C76U A91G C93G C95U C149U, the “polymerase ribozyme fitness (log ratio)” value is at most -4.2.
In the case of U45A A49C G84A it was at most -4.2; in that of U56G C79U U90A A107U C114G, at most -4.2.
In the case of A47G C63G G92U C93U it was -1.34; in that of C5A C32A U56A C85U A113C, at most -4.2; in that of G81A C85U C132A, -2.23.
On to A28U A47C G74C C95U A142C C149A, for which the “polymerase ribozyme fitness (log ratio)” value was at most -4.2.
In the case of C14U C54U G68C G84C C87G A91C A147C it was at most -4.2; in that of A17G C72U G88U U102C C105G, at most -4.2; in that of C93A G136A, -1.14.
For the variant A17U G83U, the “polymerase ribozyme fitness (log ratio)” value is -1.65.
As for G84A G88U C96G A113U U144G, the figure is at most -4.2.
In the case of G11C C57U C95U U127A C149A it was at most -4.2; in that of G58C G62C C95G, -3.72.
In the case of A20U U44G G46A G59C C96A A115C it was at most -4.2; in that of U44G G58C G59C U61A G94C, at most -4.2; in that of C38U G86U C118U, -2.07.
For A47G C75G A107U U135A U148C, the “polymerase ribozyme fitness (log ratio)” value is at most -4.2.
In the case of U4G G94A A115U U151G, the “polymerase ribozyme fitness (log ratio)” value was at most -4.2.
As for G48A G59A A60G A97G, the figure is -3.58; as for G59A U127C, -1.23; as for A17G G141C, 0.607.
As for C14U C54G C93A C95G A150G, the figure is at most -4.2; as for A26C C36A U44G U55A G140C, -4.19.
As for A40G A64C G70A C114U, the figure is at most -4.2; as for G50A G59A U101G, -0.0298.
In the case of G58U C85A C95G C96U, the “polymerase ribozyme fitness (log ratio)” value was -3.24.
As for U31A C93A A115C, the figure is -1.71; as for A17U A52U C57U C96U A98U C103G A121C G140C, at most -4.2; as for G25C A60G G83C C96U G141U, -2.48.
In the case of C93U A106C C129G G143A it was -3.64.
As for A12U U45A U55G A66G U78C G88U C95G A137U, the figure is at most -4.2; as for C51U C85G, -2.53.
With C93A A138G G143C, the “polymerase ribozyme fitness (log ratio)” value is -3.66.
As for C14A G62U G94A, the figure is -2.9.
As for C35U A73G, the figure is -0.161.
Turning to G70A U101C C103G C123U, the “polymerase ribozyme fitness (log ratio)” value is at most -4.2.
In the case of A30G A47U G50C G80C C96U C103U it was at most -4.2; in that of U7G C10A C51A U82G G88A C108U U111C G133U G143C, at most -4.2; in that of C63U C85U C95A, -0.621.
As for G48A G50C, the figure is -3.83; as for A12G G80A C118U A119C A120G G143U, -3.12; as for A12U U55G A142C, -1.46.
In the case of U44G U45G C72G U144C A147G it was at most -4.2.
